The values below come from US20090258007A1 (Kyowa Kirin, published 2009).

Assay [1] concerns the target T1, human PERP with myc-His tag expressed in CHO/DG44 cells (PERP/CHO cell) (human, UniProt Q96FX8 1-193).
T1 construct: Four-pass membrane protein of 193 amino acids; On intact cells in FMAT and flow cytometry; as Triton X lysate in sandwich ELISA and immunoprecipitation; SDS-denatured in Western blotting; also called PERP/CHO cells; PERP-expressing cell line; not shown: C-terminal myc-His tag from pcDNA 3.1(-)/myc-His C
In words: flow cytometry on PERP/CHO cells against CHO/DG44 cells, 10 µg/ml. As for the experimental part: As the cells, PERP/CHO cells and CHO/DG44 cells were used. The cells which were cultured for 2 to 3 days on an Iscove's Modified Dulbecco's medium (manufactured by Invitrogen) containing 10% fetal bovine serum and peeled off by 0.02% EDTA solution (manufactured by Nacalai Tesque) were washed with PBS and blocked for 20 minutes at ice temperature using BSA-PBS in order to avoid non-specific antibody adsorption. […] Again, washing was carried out 3 times using PBS by a centrifugation method, followed by suspension in PBS, and wavelength of 510 to 530 nm excited by laser beam 488 nm Ar was measured by a flow cytometer (manufactured by Beckman Coulter).

In assay [2] the target is T1, human PERP with myc-His tag expressed …. In words: flow cytometry on PERP/CHO cells, 5-fold dilutions from 20 µg/mL. As for the experimental part: After washing with a buffer for FCM twice, a solution in which PE-labeled anti-human IgG (H+L) antibody (manufactured by Beckman Coulter) was diluted 50-fold with a buffer for FCM was added thereto at 50 μL/well. After reaction in ice shading from the light for 30 minutes, washing with a buffer for FCM was carried out 3 times and fluorescence intensity was measured using a flow cytometer.
For orientation: In flow cytometry, cells or beads pass a laser one at a time.

B1: anti-PERP mouse antibody KM3411 (antibody, V domains shown)
VH: DVQLQESGPGLVKPSQSLSLTCTVTGFSITTEYAWNWIRQFPGNRLEWMGYIGYTGRTNYSPSLKSRISITRDTSKNQFFLQLNSVTTEDTATYYCTRMDYWGQGTSVTVSS
VL: QIVLIQSPVIMSASPGEKVTITCSASSSVSYMHWFQQKPGTSPKLWIYSTSNLASGVPARFSGSGSGTSYSLTISRMEAEDAATYYCQQRSSYPPTFGAGTKLELK
notes: Used as hybridoma culture supernatant or purified antibody; also called monoclonal antibody KM3411; monoclonal antibody produced by hybridoma KM3411 (FERM BP-8643)
For B1, the binding result in assay [1] is on record as “binds”.

B2: anti-PERP chimeric antibody KM3481 (antibody, V domains shown)
VH: B1 VH
VL: B1 VL
notes: Human chimeric antibody: VH and VL of KM3411 with human CH and CL from the vector pKANTEX93 (WO 97/10354)
With B2, the binding result in assay [2] is recorded as “binds”.
